In assay [1] the target is T1, Bcl-2 (Homo sapiens, UniProt P10415).
T1 construct: expressed in transfected cells; host or cells: HEK293T
The assay is described as follows: Co-IP assay of TR3 mutants with Bcl-2 in HEK293T cells. Type of assay: binding. The conditions noted are these: GFP fusions co-transfected with Bcl-2 in HEK293T cells. The procedure: TR3/Bcl-2 interaction assays—Reporter gene assays using NurRE-tk-CAT in CV-1 cells, and GST pull-down assay were described previously (Li, et al. 2000 Science 289, 1159-1164). For the mammalian two-hybrid assays, CV-1 cells were co-transfected with pcDNA-Gal4TAD-TR3 or pcDNA-Gal4TAD-TR3/ΔDBD and pcDNA-Gal4DBD-Bcl-2/ΔTM along with a luciferase reporter gene driven by four copies of the Gal4-binding site. The cells were harvested and reporter gene activity was measured. For Co-IP assays, HEK293T cells were transiently transfected with various expression plasmids using a modified calcium phosphate precipitation method (Wu et al, 1997) in the presence of caspase inhibitors (zVAD-fmk) to prevent degradation of TR3 protein due to apoptosis. Cells were suspended in lysis buffer (50 mM Tris-HCl, PH7.4; 150 mM NaCl; 20 mM EDTA; 1% NP-40; 1 mM PMSF; 50 μg/ml Leupeptin; […]; 0.1 mM Na3VO4; and 1 mM DTT). Cells extracts were cleared by incubation with the Protein A/G plus Agarose beads (Santa Cruz) and then incubated with appropriate antibody and 30 μl of Protein A or G plus Agarose beads overnight at 4° C. Beads were then washed and boiled in Laemmli gel-loading solution before performing SDS-PAGE/immunoblotting using the following polyclonal or monoclonal antibodies: monoclonal mouse anti-GFP (Medical and Biological Laboratories), monoclonal mouse anti-HA (Roche Molecular Biochemicals), monoclonal mouse anti-FLAG (Sigma), monoclonal mouse anti-Myc (Santa Cruz), polyclonal rabbit anti-TR3 (Active Motif), or monoclonal mouse anti-Bcl-2 (Santa Cruz). Immunoreactive products were detected by chemiluminescence with an enhanced chemiluminescence system (ECL) (Amersham).
TR3/ΔDBD, which can constitutively reside on mitochondria, was also analyzed by co-immunoprecipitation (Co-IP) assay for its interaction with Bcl-2. GFP-TR3/ΔDBD was transfected into human embryonic kidney cell line 293T alone or together with a Bcl-2 expression vector. The expressed GFP-TR3/ΔDBD mutant protein as then precipitated by using either anti-Bcl-2 antibody or control IgG and detected by western blotting using anti-GFP antibody. The same membranes were also blotted with anti-Bcl-2 antibody to determine precipitation specificity and efficiency. Input represents 10% of total cell extract used in the precipitation assays.
Several TR3 mutants were analyzed to determine the domain of TR3 which interacts with Bcl-2. The TR3 mutants are schematically represented in FIG. 1. A Co-IP assay was performed, as described above. […] Cell extracts were prepared and incubated with anti-Bcl-2 antibody or control IgG for Co-IP assays. Lysates were immunoprecipitated by using either polyclonal rabbit anti-Bcl-2 antibody or control IgG. Cell lysates and immunoprecipitates were examined by immunoblotting using anti-GFP antibody. The same membranes were also blotted with anti-Bcl-2 antibody (Santa Cruz) to determine IP specificity and efficiency. […] This Co-IP was specific because Bcl-2 co-transfection was necessary. […] Thus, the DC1 region in the TR3 LBD is involved in the Bcl-2 interaction.
To further determine the interaction of DC1 with Bcl-2, a region of hydrophobic amino acids ([…]—SEQ ID NO: 1) was deleted from TR3/ΔDBD, and the resulting mutant (TR3/ΔDBD/Δ471-488) was analyzed for its interaction with Bcl-2. TR3/ΔDBD/[…], with eighteen amino acids from 471 to 488 in the DC1 region deleted from TR3/ΔDBD, TR3/ΔDBD/I483A (with Ile483 replaced with Ala) and TR3/ΔDBD/L487A (with Leu487 replaced with Ala) were analyzed for their interaction with Bcl-2 by in vivo Co-IP assay as described above.

The test system of assay [2] is 293T cells. Put plainly: DAPI apoptosis assay in 293T cells. Format: cell-based, human. The conditions noted are these: 293T, co-expressed with Bcl-2, 36 h, DAPI. As for the experimental part:
Apoptosis assays—For nuclear morphological change analysis, cells were trypsinized, washed with PBS, fixed with 3.7% paraformaldehyde, and stained with DAPI (4,6-diamidino-2-phenylindole) (50 μg/ml) to visualize the nuclei by UV-microscopy. The percentages of apoptotic cells were determined by counting 300 GFP-positive cells, scoring cells having nuclear fragmentation and/or chromatin condensation.
DAPI staining was used to study the apoptotic effect of TR3/Bcl-2 interaction. 293T cells were transfected with GFP-TR3/ΔDBD alone or together with Bcl-2. After 36 h, nuclei were stained by DAPI and nuclear fragmentation and chromatin condensation were identified. Cells were also stained with anti-Bcl-2 antibody, followed by TRITC-conjugated secondary antibody (Sigma). Bcl-2 and GFP-ΔDBD expression and nuclear morphology were visualized by fluorescence microscopy, and the two images were overlaid. […] But, when Bcl-2 was cotransfected, a significant amount of transfected cells underwent apoptosis. For example, approximately 4% of cells transfected with either TR3/ΔDBD or Bcl-2 were apoptotic, compared to 35% of cell transfected with both. […] Cotransfection of Bcl-2, however, prevented BAX-induced apoptosis in these cells (see FIG. 4). The effect of Bcl-2 on apoptotic potential of TR3/ΔDBD in lung cancer and breast cancer cells was also investigated.
To characterize the pro-apoptotic mechanism of Bcl-2 in the setting of TR3-induced apoptosis, various TR3 mutants and Bcl-2 mutants were co-expressed in HEK293T cells. TR3 mutants were transfected into 293T cells together with or without Bcl-2 expression vector or with Bcl-2 mutants. After 36 h, nuclei were stained by DAPI. Cells displaying nuclear condensation or fragmentation were scored.
The role of various Bcl-2 mutants in mediating apoptosis induction by TR3 was next studied. […] The hydrophobic cleft of Bcl-2 is involved in its anti-apoptotic effect through its interaction with BH3 domain of pro-apoptotic molecules (Reed 1997 Semin Hematol 34:9-19; Reed 1997 Nature 387:773-776). To investigate whether the BH3 domain-binding motif of Bcl-2 is also involved in its apoptotic effect, various Bcl-2 mutants including Y108K Bcl-2, with a mutation in the BH3 domain-binding cleft, L137A, and G145A (all with impaired interaction with bax), were cotransfected together with TR3/ΔDBD. […] Bcl-2 mutations (Y108K, L137A, G145A) that impaired its interaction with Bax, abolished the Bcl-2 inhibitory effect on Bax-induced apoptosis, consistent with previous observations that the hydrophobic cleft of Bcl-2 is essential for its anti-apoptotic effect. […] Thus, an intact BH3 domain-binding motif in Bcl-2 is involved in its pro-apoptotic effect. In contrast to the inhibitory effect of Bcl-2 on Bax-induced apoptosis TR3/ΔDBD-induced apoptosis was augmented by co-expression of Bcl-2 in HEK293T cells.
Mitochondrial targeting of TR3 has been previously identified as being involved in its apoptotic effect. To study whether mitochondrial localization of the TR3/ΔDBD/Bcl-2 complex was involved in their apoptotic effect, TR3/ΔDBD was cotransfected with Bcl-2/ATM, a Bcl-2 lacking its transmembrane domain. […] Thus, mitochondrial localization of TR3/ΔDBD/Bcl-2 complex is involved in this apoptotic effect.

For assay [3], the system named is 293T cells. Put plainly: Confocal microscopy of mitochondrial targeting in 293T cells. Format: cell-based, human. The procedure:
Subcellular localization assays—Cells were seeded onto cover-slips in 6-well plates overnight, then transiently transfected with GFP-fusion expression plasmids. After 16 hours, cells were washed with PBS and fixed in 4% paraformaldehyde. For mitochondrial staining, cells were then incubated with anti-Hsp60 goat IgG (Santa Cruz, USA), followed by anti-goat IgG conjugated with Cy3 (Sigma). For cyt c staining, cells were incubated with monoclonal anti-cyt c IgG (PharMingen), followed by anti-mouse IgG conjugated with Cy5 (Amersham). Fluorescent images were collected and analyzed using a MRC-1024 MP laser-scanning confocal microscope (Bio-Rad). Subcellular fractionation assays were performed as described (Li, et al. 2000 Science 289:1159-1164). Briefly, cells (1×10^7 cells) suspended in 0.5 ml hypotonic buffer (5 mM Tris-HCl, pH 7.4, 5 mM KCl, 1.5 mM MgCl2, 0.1 mM EGTA, pH 8.0, and 1 mM DTT) were homogenized and cell extracts were centrifuged at 500×g for 5 min. The resulting supernatant was centrifuged at 10,000×g for 30 min at 4° C. to obtain the HM fraction. HM fraction was resuspended in 100 μl lysis buffer (10 mM Tris, pH 7.4, 150 mM NaCl, 1% Triton X-100, 5 mM EDTA, pH 8.0) for immunoblotting analysis.
A. confocal microscopy—First an experiment was performed to determine whether the deletion mutant TR3/ΔDBD targets mitochondria via its interaction with Bcl-2. In confocal microscopy analysis, GFP-TR3/ΔDBD and Bcl-2 were transfected into 293T cells alone or together. […] Bcl-2, TR3/ΔDBD and mitochondria (Hsp60) were visualized using confocal microscopy and the three images were overlaid.

We go through four molecules from patent US8273705B2, “Conversion of apoptotic proteins” (The Burnham Institute, priority 2002, dated 2012).

“Also recorded” adds a separate entry of the source.

T1 sequence (P10415 whole entry): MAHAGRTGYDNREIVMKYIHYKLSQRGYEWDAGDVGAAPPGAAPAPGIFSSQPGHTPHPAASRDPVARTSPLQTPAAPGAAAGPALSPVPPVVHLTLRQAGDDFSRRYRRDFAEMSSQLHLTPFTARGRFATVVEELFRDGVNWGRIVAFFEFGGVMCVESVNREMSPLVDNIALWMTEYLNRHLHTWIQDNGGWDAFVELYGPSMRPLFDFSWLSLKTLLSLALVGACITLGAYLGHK

B1: TR3/ΔDBD/ΔDC1: TR3/ΔDBD with DC1 deleted (protein)
chain: MPCIQAQYGTPAPSPGPRDHLASDPLTPEFIKPTMDLASPEAAPAAPTALPSFSTFMDGYTGEFDTFLYQLPGTVQPCSSASSSASSTSSSSATSPASASFKFEDFQVYGCYPGPLSGPVDEALSSSGSDYYGSPCSAPSPSTPSFQPPQLSPWDGSFGHFSPSQTYEHVAAVAGEPQPASCLSRLLGKLPELRTLCTQGLQRIFYLKLEDLVPPPPIIDKIFMDTLPF
modifications: left off: large carriers; small tags and cut ends
notes: TR3/ΔDBD with DC1 deleted
Regarding B1, the “interaction with Bcl-2 (Co-IP)” value in assay [1] was “largely abolished the interaction”. The apoptosis result is recorded as “failed to confer the apoptotic potential of Bcl-2” in assay [2] and “did not result in apoptosis” in assay [2] (listed as TR3/ΔDBD/ADC1).

B2: DC1: C-terminal fragment of TR3 (467-536 aa), 69 amino acids (protein, listed as Homo sapiens)
chain: GLVLHRLQCARGFGDWIDSILAFSRSLHSLLVDVPAFACLSALVLITDRHGLQEPRRVEELQNRIASCLK
As for B2, the “interaction with Bcl-2 (Co-IP)” value in assay [1] is “strongly interact with Bcl-2”. For the same molecule, in assay [2], the apoptosis result is “potently induced apoptosis”.

B3: TR3/ΔDBD/L487A: TR3/ΔDBD with Leu487 replaced with Ala (protein)
chain: MPCIQAQYGTPAPSPGPRDHLASDPLTPEFIKPTMDLASPEAAPAAPTALPSFSTFMDGYTGEFDTFLYQLPGTVQPCSSASSSASSTSSSSATSPASASFKFEDFQVYGCYPGPLSGPVDEALSSSGSDYYGSPCSAPSPSTPSFQPPQLSPWDGSFGHFSPSQTYLVLHRLQCARGFGDWIDSIAAFSRSLHSLLVDVPAFACLSALVLITDRHGLQEPRRVEELQNRIASCLKEHVAAVAGEPQPASCLSRLLGKLPELRTLCTQGLQRIFYLKLEDLVPPPPIIDKIFMDTLPF
modifications: left off: large carriers; small tags and cut ends
notes: TR3/ΔDBD with Leu487 replaced with Ala
For B3, the “interaction with Bcl-2 (Co-IP)” value in assay [1] is “significantly impaired the interaction; also recorded: largely abolished the interaction”. For the same molecule, the colocalization with mitochondria result in assay [3] was “failed to colocalize with mitochondria”. Moreover, the apoptosis result in assay [2] is reported as “failed to confer the apoptotic potential of Bcl-2”.

B4: TR3/ΔDBD/I483A: TR3/ΔDBD with Ile483 replaced with Ala (protein)
chain: MPCIQAQYGTPAPSPGPRDHLASDPLTPEFIKPTMDLASPEAAPAAPTALPSFSTFMDGYTGEFDTFLYQLPGTVQPCSSASSSASSTSSSSATSPASASFKFEDFQVYGCYPGPLSGPVDEALSSSGSDYYGSPCSAPSPSTPSFQPPQLSPWDGSFGHFSPSQTYLVLHRLQCARGFGDWADSILAFSRSLHSLLVDVPAFACLSALVLITDRHGLQEPRRVEELQNRIASCLKEHVAAVAGEPQPASCLSRLLGKLPELRTLCTQGLQRIFYLKLEDLVPPPPIIDKIFMDTLPF
modifications: left off: large carriers; small tags and cut ends
notes: TR3/ΔDBD with Ile483 replaced with Ala
With B4, the “interaction with Bcl-2 (Co-IP)” value in assay [1] was “largely abolished the interaction”. In addition, in assay [2], the apoptosis result is “failed to confer the apoptotic potential of Bcl-2”.
